Consider five sequences from the supplement of paper PMC5998384.

Series [1] relates to HeLa Kyoto. Kind of series: solubility in G1/S (NP-40 vs SDS abundance) (log2 ratio); higher = more soluble. To be noted: cell cycle stage: G1/S.
The test system of series [2] is HeLa Kyoto. Kind of series: melting temperature (median over replicates), in situ; higher = more thermally stable.
The test system of series [3] is HeLa Kyoto. In words: solubility change mitosis vs G1/S (difference of NP-40 vs SDS log2 ratios) (log2 ratio difference); higher = more soluble in mitosis.
Series [4] has as its system HeLa Kyoto. In words: thermal stability score vs G1/S (z-score of summed log2 fold changes over temperatures); higher = more thermally stable than in G1/S.
Setting [5] is: cell cycle stage: early G1 (4.5 h after nocodazole release).
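Wherever melting temperature (median over replicates), in situ is given: HeLa Kyoto cells synchronized by double thymidine or nocodazole block, proteins quantified by TMT10plex mass spectrometry, three independent biological replicates.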
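Wherever solubility change mitosis vs G1/S (difference of NP-40 vs SDS log2 ratios) is given: synchronized HeLa Kyoto cells (double thymidine block for G1/S, nocodazole release for mitosis), protein amounts in NP-40 versus SDS lysates quantified by mass spectrometry, three biological replicates.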
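Wherever solubility in G1/S (NP-40 vs SDS abundance) is given: HeLa Kyoto cells arrested at G1/S by double thymidine block, proteins quantified by TMT10plex mass spectrometry in mild NP-40 versus SDS extracts, three biological replicates.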
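Wherever thermal stability score vs G1/S (z-score of summed log2 fold changes over temperatures) is given: synchronized HeLa Kyoto cells, proteins quantified by TMT10plex mass spectrometry, three biological replicates, mitosis taken 0.5 h after nocodazole release, G1/S directly after double thymidine block.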

In the case of “MRPPGFLSRAPSLNRAERGIWSCSMDQREPLPPAPAENEMKYDTNNNEEEEGEQFDFDSGDEIPEADRQAPSAPETGGAGASEAPAPTGGEDGAGAETTPVAEPTKLVLPMKVNPYSVIDITPFQEDQPPTPVPSAEEENVGLHVPCGYLVPVPCGYAVPSNLPLLLPAYSSPVIICATSLDEEAETPEVTEDRQPNSLSSEEPPTSEDQVGREDSALARWAADPANTAWMENPEEAIYDDVPRENSDSEPDEMIYDDVENGDEGGNSSLEYGWSSSEFESYEEQSDSECKNGIPRSFLRSNHKKQLSHDLTRLKEHYEKKMRDLMASTVGVVEIQQLRQKHELKMQKLVKAAKDGTKDGLERTRAAVKRGRSFIRTKSLIAQDHRSSLEEEQNLFIDVDCKHPEAILTPMPEGLSQQQVVRRYILGSVVDSEKNYVDALKRILEQYEKPLSEMEPKVLSERKLKTVFYRVKEILQCHSLFQIALASRVSEWDSVEMIGDVFVASFSKSMVLDAYSEYVNNFSTAVAVLKKTCATKPAFLEFLKQEQEASPDRTTLYSLMMKPIQRFPQFILLLQDMLKNTSKGHPDRLPLQMALTELETLAEKLNERKRDADQRCEVKQIAKAINERYLNKLLSSGSRYLIRSDDMIETVYNDRGEIVKTKERRVFMLNDVLMCATVSSRPSHDSRVMSSQRYLLKWSVPLGHVDAIEYGSSAGTGEHSRHLAVHPPESLAVVANAKPNKVYMGPGQLYQDLQNLLHDLNVIGQITQLIGNLKGNYQNLNQSVAHDWTSGLQRLILKKEDEIRAADCCRIQLQLPGKQDKSGRPTFFTAVFNTFTPAIKESWVNSLQMAKLALEEENHMGWFCVEDDGNHIKKEKHPLLVGHMPVMVAKQQEFKIECAAYNPEPYLNNESQPDSFSTAHGFLWIGSCTHQMGQIAIVSFQNSTPKVIECFNVESRILCMLYVPVEEKRREPGAPPDPETPAVRASDVPTICVGTEEGSISIYKSSQGSKKVRLQHFFTPEKSTVMSLACTSQSLYAGLVNGAVASYARAPDGSWDSEPQKVIKLGVLPVRSLLMMEDTLWAASGGQVFIISVETHAVEGQLEAHQEEGMVISHMAVSGVGIWIAFTSGSTLRLFHTETLKHLQDINIATPVHNMLPGHQRLSVTSLLVCHGLLMVGTSLGVLVALPVPRLQGIPKVTGRGMVSYHAHNSPVKFIVLATALHEKDKDKSRDSLAPGPEPQDEDQKDALPSGGAGSSLSQGDPDAAIWLGDSLGSMTQKSDLSSSSGSLSLSHGSSSLEHRSEDSTIYDLLKDPVSLRSKARRAKKAKASSALVVCGGQGHRRVHRKARQPHQEELAPTVMVWQIPLLNI [ARHGEF10]”, the “solubility in G1/S (log2)” value in the series on HeLa Kyoto [1] is -0.0539. Besides, the melting temperature was found to be 49.3 °C in the series with HeLa Kyoto [2] (cell cycle stage: G1/S) and 49.8 °C in the series with HeLa Kyoto [2] (cell cycle stage: mitosis). For the same sequence, the “solubility change mitosis (log2)” value with HeLa Kyoto [3] is -0.182. In addition, the thermal stability score is -0.414 with HeLa Kyoto [4] (setting [5]) and 0.205 in the series with HeLa Kyoto [4] (cell cycle stage: mitosis).

Turning to “MSDFDSNPFADPDLNNPFKDPSVTQVTRNVPPGLDEYNPFSDSRTPPPGGVKMPNVPNTQPAIMKPTEEHPAYTQIAKEHALAQAELLKRQEELERKAAELDRREREMQNLSQHGRKNNWPPLPSNFPVGPCFYQDFSVDIPVEFQKTVKLMYYLWMFHAVTLFLNIFGCLAWFCVDSARAVDFGLSILWFLLFTPCSFVCWYRPLYGAFRSDSSFRFFVFFFVYICQFAVHVLQAAGFHNWGNCGWISSLTGLNQNIPVGIMMIIIAALFTASAVISLVMFKKVHGLYRTTGASFEKAQQEFATGVMSNKTVQTAAANAASTAASSAAQNAFKGNQI [SCAMP1]”, in the series on HeLa Kyoto [1], the “solubility in G1/S (log2)” value is 0.0609. Besides, the melting temperature with HeLa Kyoto [2] (cell cycle stage: G1/S) was determined as 55.8 °C; in the series on HeLa Kyoto [2] (cell cycle stage: mitosis) it was 56 °C. Also, the “solubility change mitosis (log2)” value with HeLa Kyoto [3] was -0.114. Besides, the results for the thermal stability score in the series with HeLa Kyoto [4] (setting [5]) and in the series on HeLa Kyoto [4] (cell cycle stage: mitosis) were -0.608 and -0.121, respectively.

On to “MPGFDYKFLEKPKRRLLCPLCGKPMREPVQVSTCGHRFCDTCLQEFLSEGVFKCPEDQLPLDYAKIYPDPELEVQVLGLPIRCIHSEEGCRWSGPLRHLQGHLNTCSFNVIPCPNRCPMKLSRRDLPAHLQHDCPKRRLKCEFCGCDFSGEAYESHEGMCPQESVYCENKCGARMMRRLLAQHATSECPKRTQPCTYCTKEFVFDTIQSHQYQCPRLPVACPNQCGVGTVAREDLPGHLKDSCNTALVLCPFKDSGCKHRCPKLAMARHVEESVKPHLAMMCALVSRQRQELQELRRELEELSVGSDGVLIWKIGSYGRRLQEAKAKPNLECFSPAFYTHKYGYKLQVSAFLNGNGSGEGTHLSLYIRVLPGAFDNLLEWPFARRVTFSLLDQSDPGLAKPQHVTETFHPDPNWKNFQKPGTWRGSLDESSLGFGYPKFISHQDIRKRNYVRDDAVFIRAAVELPRKILS [TRAF4]”, for which the “solubility in G1/S (log2)” value with HeLa Kyoto [1] was -0.439. In addition, the values for the melting temperature with HeLa Kyoto [2] (cell cycle stage: G1/S) and in the series on HeLa Kyoto [2] (cell cycle stage: mitosis) were 51.3 °C and 51.8 °C, respectively. Moreover, the “solubility change mitosis (log2)” value with HeLa Kyoto [3] came out at 0.124. Further, the thermal stability score in the series with HeLa Kyoto [4] (setting [5]) was 0.266; with HeLa Kyoto [4] (cell cycle stage: mitosis) it was 0.814.

On to “MASGAYNPYIEIIEQPRQRGMRFRYKCEGRSAGSIPGEHSTDNNRTYPSIQIMNYYGKGKVRITLVTKNDPYKPHPHDLVGKDCRDGYYEAEFGQERRPLFFQNLGIRCVKKKEVKEAIITRIKAGINPFNVPEKQLNDIEDCDLNVVRLCFQVFLPDEHGNLTTALPPVVSNPIYDNRAPNTAELRICRVNKNCGSVRGGDEIFLLCDKVQKDDIEVRFVLNDWEAKGIFSQADVHRQVAIVFKTPPYCKAITEPVTVKMQLRRPSDQEVSESMDFRYLPDEKDTYGNKAKKQKTTLLFQKLCQDHVETGFRHVDQDGLELLTSGDPPTLASQSAGITVNFPERPRPGLLGSIGEGRYFKKEPNLFSHDAVVREMPTGVSSQAESYYPSPGPISSGLSHHASMAPLPSSSWSSVAHPTPRSGNTNPLSSFSTRTLPSNSQGIPPFLRIPVGNDLNASNACIYNNADDIVGMEASSMPSADLYGISDPNMLSNCSVNMMTTSSDSMGETDNPRLLSMNLENPSCNSVLDPRDLRQLHQMSSSSMSAGANSNTTVFVSQSDAFEGSDFSCADNSMINESGPSNSTNPNSHGFVQDSQYSGIGSMQNEQLSDSFPYEFFQV [REL]”, for which the “solubility in G1/S (log2)” value in the series on HeLa Kyoto [1] was -0.0913. The melting temperature amounted to 49.5 °C in the series with HeLa Kyoto [2] (cell cycle stage: G1/S) and 50.5 °C with HeLa Kyoto [2] (cell cycle stage: mitosis). Also, in the series with HeLa Kyoto [3], the “solubility change mitosis (log2)” value was -0.0913. Also, the thermal stability score was -0.962 with HeLa Kyoto [4] (setting [5]) and -0.219 in the series with HeLa Kyoto [4] (cell cycle stage: mitosis).

Turning to “MRGFGPGLTARRLLPLRLPPRPPGPRLASGQAAGALERAMDELLRRAVPPTPAYELREKTPAPAEGQCADFVSFYGGLAETAQRAELLGRLARGFGVDHGQVAEQSAGVLHLRQQQREAAVLLQAEDRLRYALVPRYRGLFHHISKLDGGVRFLVQLRADLLEAQALKLVEGPDVREMNGVLKGMLSEWFSSGFLNLERVTWHSPCEVLQKISEAEAVHPVKNWMDMKRRVGPYRRCYFFSHCSTPGEPLVVLHVALTGDISSNIQAIVKEHPPSETEEKNKITAAIFYSISLTQQGLQGVELGTFLIKRVVKELQREFPHLGVFSSLSPIPGFTKWLLGLLNSQTKEHGRNELFTDSECKEISEITGGPINETLKLLLSSSEWVQSEKLVRALQTPLMRLCAWYLYGEKHRGYALNPVANFHLQNGAVLWRINWMADVSLRGITGSCGLMANYRYFLEETGPNSTSYLGSKIIKASEQVLSLVAQFQKNSKL [MLYCD]”, the “solubility in G1/S (log2)” value with HeLa Kyoto [1] came out at 0.0216. Further, the melting temperature was 52.7 °C with HeLa Kyoto [2] (cell cycle stage: G1/S) and 54.3 °C in the series with HeLa Kyoto [2] (cell cycle stage: mitosis). Further, the “solubility change mitosis (log2)” value in the series on HeLa Kyoto [3] was -0.194. Besides, the thermal stability score with HeLa Kyoto [4] (setting [5]) was -0.712; with HeLa Kyoto [4] (cell cycle stage: mitosis), -1.19.
